Assay [1] deals with T1, human ASC (apoptosis associated speck-like protein containing a caspase-recruitment domain) (human, UniProt Q9ULZ3 1-195).
T1 construct: recombinant hASC in ELISA and SPR; endogenous ASC (cytoplasmic or specks) in Western blot and immunofluorescence; also called hASC; PYCARD
The assay is described as follows: ELISA, coated hASC.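 Further: antibody binding to plate-coated recombinant human ASC, read as phosphatase substrate absorbance, EC50 from four-parameter variable-slope fit.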 In general terms: An ELISA detects its analyte on a solid surface through an enzyme-linked reagent.

Assay [2] deals with T2, PYD domain of human ASC (human, UniProt Q9ULZ3 1-91, limits assumed).
T2 construct: biotinylated in BLI; His/MBP-tagged in the alanine ELISA; also called hPYD; human PYD
The assay is described as follows: ELISA, coated hPYD.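 Further: monoclonal antibody binding to plate-coated human ASC PYD measured by ELISA, with a phosphatase substrate absorbance read-out and EC50 from a variable slope curve fit.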

In assay [3] the target is T3, mouse ASC (mouse, UniProt Q9EPB4 1-193).
T3 construct: recombinant mASC in ELISA and SPR; endogenous ASC of J774.A1 cells in Western blot and immunofluorescence; also called mASC
T3 sequence: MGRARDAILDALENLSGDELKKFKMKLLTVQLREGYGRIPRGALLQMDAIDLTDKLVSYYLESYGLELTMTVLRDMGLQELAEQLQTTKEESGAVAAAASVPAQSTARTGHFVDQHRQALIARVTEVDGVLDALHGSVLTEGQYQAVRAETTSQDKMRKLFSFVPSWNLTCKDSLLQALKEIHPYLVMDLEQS
The assay is described as follows: ELISA, coated mASC.

Assay [4] concerns the target T4, CARD domain of human ASC (human, UniProt Q9ULZ3 107-195).
T4 construct: biotinylated in BLI; also called hCARD; human CARD
T4 sequence: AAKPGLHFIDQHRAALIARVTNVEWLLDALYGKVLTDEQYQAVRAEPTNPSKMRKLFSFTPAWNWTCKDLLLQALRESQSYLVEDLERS
Kind of assay: ELISA, coated hCARD.

Assay [5] has as its target T1, human ASC (apoptosis associated …). Kind of assay: cell-based or functional assay.
The target is the same in assay [6]. Kind of assay: cell-based or functional assay. This is another data set of the same source.
Assay [7] concerns the target T3, mouse ASC. The assay is described as follows: cell-based or functional assay.
The target in assay [8] is T1, human ASC (apoptosis associated …). Kind of assay: SPR affinity mode, mAb captured.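 Further: Single-cycle SPR kinetics with mAbs captured on goat anti-mouse antibody, double-referenced against blank flow cell and buffer cycle, fitted by a 1:1 kinetic model.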
The target of assay [9] is T4, CARD domain of human ASC. The assay is described as follows: BLI binning on CARD, competitor 32B6C7-Ab1.
The target in assay [10] is T4, CARD domain of human ASC. The assay is described as follows: BLI binning on CARD, competitor 18F4C12-Ab1.
For assay [11], the target named is T4, CARD domain of human ASC. The assay is described as follows: BLI binning on CARD, competitor 2504F3D9-Ab1.
Assay [12] addresses T4, CARD domain of human ASC. Kind of assay: BLI binning on CARD, competitor 2609F4A9-Ab1.
In assay [13] the target is T4, CARD domain of human ASC. Kind of assay: BLI binning on CARD, competitor 2629E8D1-Ab1.
Assay [14] addresses T4, CARD domain of human ASC. The assay is described as follows: BLI binning on CARD, competitor 2622E12F11-Ab1.
In assay [15] the target is T3, mouse ASC. The assay is described as follows: SPR affinity mode, steady-state fit, apparent KD.
The target of assay [16] is T3, mouse ASC. The assay is described as follows: cell-based or functional assay. This is another data set of the same source.
The target in assay [17] is T3, mouse ASC. The assay is described as follows: SPR affinity mode, mAb captured.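 Further: Single-cycle SPR kinetics with mAbs captured on goat anti-mouse antibody, double-referenced against blank flow cell and buffer cycle, fitted by a 1:1 kinetic model.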
The target of assay [18] is T2, PYD domain of human ASC. Kind of assay: BLI binning on PYD, competitor 22D3A6-AB1.
In assay [19] the target is T2, PYD domain of human ASC. The assay is described as follows: BLI binning on PYD, competitor 23E5F7-AB2.
In assay [20] the target is T2, PYD domain of human ASC. Kind of assay: BLI binning on PYD, competitor 26A1G2-AB1.
Assay [21] addresses T2, PYD domain of human ASC. The assay is described as follows: BLI binning on PYD, competitor 31F10C5-AB1.
Assay [22] addresses T2, PYD domain of human ASC. Kind of assay: BLI binning on PYD, competitor 401H9B7-AB1.
The target of assay [23] is T2, PYD domain of human ASC. The assay is described as follows: BLI binning on PYD, competitor 416E6G4-AB1.
Assay [24] deals with T2, PYD domain of human ASC. Kind of assay: BLI binning on PYD, competitor 2610H7D3-AB1.
In assay [25] the target is T2, PYD domain of human ASC. Kind of assay: BLI binning on PYD, competitor 2617C3A8-AB1.
Assay [26] concerns the target T2, PYD domain of human ASC. The assay is described as follows: BLI binning on PYD, competitor 2626B9D3-AB1.
For assay [27], the target named is T4, CARD domain of human ASC. The assay is described as follows: sandwich ELISA on MBP-tagged protein captured by anti-MBP antibody, signal as % of hPYD-WT.
Assay [28] has as its target T4, CARD domain of human ASC. The assay is described as above. The source holds these as a separate data set.

Where a chain is given by its changes, count along the chain named. Like-named read-outs stand apart in the source and are kept apart here.

T2 sequence (Q9ULZ3 1-91 limits assumed): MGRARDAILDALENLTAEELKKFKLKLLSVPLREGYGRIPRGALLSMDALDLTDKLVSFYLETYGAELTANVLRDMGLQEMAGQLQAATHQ

B1: ACI-8016-18F4C12-AB1 (antibody, V domains shown)
VH: EVQLQQSGAELVRPGSSVKMTCKTSGYSFSSYGMSWVKQRPGQGLEWIGYIYVGNGYTEYNEKFKGKATLTSDTSSSTVYMDFRSLTSEDSAIYFCARLNRGRALDFWGQGTTLTVSS
VL: DIVLTQSPASLAVSLGQRATISCRASQSVSTSGHSYMHWYQQKPRQSPKLLIHFASNLESGVPARFTGSGSGTDFTLNIHPVEEEDAATYYCQHSWDLPYTFGGGTKLEIK
notes: also called 936.18F4C12
On to B1, for which the EC50 in assay [1] amounted to 0.19 nM; with mouse ASC [3] it was 0.2 nM; with CARD domain of human ASC [4], 0.18 nM. Besides, the binding result with PYD domain of human ASC [2] is “no binding”. The “Human ASC polymerization assay, IC50” value in assay [5] came to 4.7 nM. Besides, the “IL-1β release, human monocytic cell line, IC50” value (“IL-1β release” for short) in assay [6] was 15.9 nM. Besides, in the assay with mouse ASC [7], the “% IL-1β inhibition, mouse primary microglia, 420 nM mAb” value (from here on “% IL-1β inhibition”) is 82.8%. Also, the Kd in assay [8] turned out to be 0.7 nM; in the assay with mouse ASC [15] it was 54.5 nM. This molecule also displayed an off-rate constant (koff) in assay [8] of 0.000442 s⁻¹. Moreover, the kon in [8] amounted to 621000 M⁻¹ s⁻¹. The normalized binding response is 78% in the assay with CARD domain of human ASC [9]; 0% with CARD domain of human ASC [10]; 33% with CARD domain of human ASC [11]; 68% with CARD domain of human ASC [12]; 69% in the assay with CARD domain of human ASC [13]; -3% in the assay with CARD domain of human ASC [14].

B2: ACI-8016-32B6C7-AB1 (antibody, V domains shown)
VH: QVQLQQSDAELVKPGASVKISCKISGYTFTDQTIHWMNQRPEQGLEWIGYIYPGDGSAMYNEKFRGKATLTADKSSSTAYMQLNSLTSEDSAVYFCARPLYSYASYYWFAYWGQGTLVTVSA
VL: DIQMNQSPSSLSASLGDTITITCHASQNINVWLSWYQRKPGNIPKLLIYKSSNLHTGVPSRFSGSGSGTGFTLTISSLQPEDIATYYCQQGQSYPLTFGGGTKLEIK
notes: also called 936.32B6C7
Consider B2, for which the EC50 in assay [1] amounted to 0.14 nM; with mouse ASC [3], 0.14 nM; with CARD domain of human ASC [4], 0.11 nM. Further, the binding result with PYD domain of human ASC [2] is reported as “no binding”. In addition, in assay [5], the “Human ASC polymerization assay, IC50” value is 12.1 nM. For the same molecule, in assay [6], the “IL-1β release” value came to 13.9 nM. For the same molecule, in the assay with mouse ASC [7], the “% IL-1β inhibition” value was 66.7%. Besides, the Kd in assay [8] amounted to 1.06 nM; in the assay with mouse ASC [15], 36.9 nM. This molecule registered an off-rate constant (koff) in [8] of 0.000201 s⁻¹. Moreover, in assay [8], the association rate constant (kon) is 192000 M⁻¹ s⁻¹. The normalized binding response was 0% with CARD domain of human ASC [9]; 97% with CARD domain of human ASC [10]; -3% with CARD domain of human ASC [11]; -3% with CARD domain of human ASC [12]; -2% with CARD domain of human ASC [13]; 106% with CARD domain of human ASC [14].

B3: ACI-8016-22D3A6-AB1 (antibody, V domains shown)
VH: QAQLQQSGTELARPGSSVKLSCKASGFTFTIYGINWVKQRTGQGLEWIGEIYPRSGNTYYDEKFKGKATLTADKSTSTAYMELRSLTSEDSAVYFCARSREWEGVFWGQGTLVTVSA
VL: QIVLTQSPAIMSAFPGEKVTITCSATSSVSYMHWFQQKPGTSPKLWIYSTSNLASGVPARFSGSGSGTSHSLTINRMEAEDAATYYCQQRSRYPFTFGSGTKLEIK
notes: also called 936.22D3A6; ACI-8016-22D3A6-AB1_hmG2c
As for B3, the values for the EC50 (in assay [1]; with PYD domain of human ASC [2]; with mouse ASC [3]) were 0.27 nM, 0.2 nM and 0.27 nM, respectively. Besides, in [5], the “Human ASC polymerization assay, IC50” value stood at 4.2 nM. In addition, the “Mouse ASC polymerization assay, IC50” value with mouse ASC [16] was determined as 30.1 nM. For the same molecule, the “IL-1β release” value in [6] came out at 41.1 nM. Besides, the “% IL-1β inhibition” value with mouse ASC [7] was found to be 40%. For the same molecule, the Kd in assay [8] is 0.38 nM; with mouse ASC [17] it was 1.16 nM. Also, the koff in [8] is 0.000264 s⁻¹; with mouse ASC [17], 0.00069 s⁻¹. The kon in assay [8] amounted to 690000 M⁻¹ s⁻¹; with mouse ASC [17], 598000 M⁻¹ s⁻¹. The normalized binding response was found to be 2% in the assay with PYD domain of human ASC [18]; 1% with PYD domain of human ASC [19]; 0% with PYD domain of human ASC [20]; 1% with PYD domain of human ASC [21]; 73% with PYD domain of human ASC [22]; 2% in the assay with PYD domain of human ASC [23]. Also, the normalized binding response worked out at 3% in the assay with PYD domain of human ASC [24], 2% in the assay with PYD domain of human ASC [25] and 74% with PYD domain of human ASC [26]. The binding result in the assay with CARD domain of human ASC [27] was “no binding”.

B4: ACI-8016-2617C3A8-AB1 (antibody, V domains shown)
VH: QVQLQQSGVELARPGASVKLSCKASGSTFTSYSITWVKQRTGQGLEWIGVIYPRSDNTYYDEKFKGKATLTADKSSSTAYIELRSLTSEDSAVYFCATRDYWGQGTTLTVSS
VL: B3 VL with F14S, T26S, H33Y, L45F, H70Y, N75S, R92N
As to B4, the values for the EC50 (in [1]; with PYD domain of human ASC [2]; in the assay with mouse ASC [3]) were 0.16 nM, 0.16 nM and 0.23 nM, respectively. For the same molecule, the “Human ASC polymerization assay, IC50” value in assay [5] came to 6 nM. Besides, in the assay with mouse ASC [16], the “Mouse ASC polymerization assay, IC50” value came out at 35.7 nM. In assay [6], the “IL-1β release” value came out at 20.3 nM. Moreover, the “% IL-1β inhibition” value with mouse ASC [7] amounted to 94.3%. In addition, the Kd (in assay [8]; with mouse ASC [17]) was 0.15 nM in each case. Also, the koff was found to be 0.000118 s⁻¹ in [8] and 0.000162 s⁻¹ in the assay with mouse ASC [17]. In addition, the kon came out at 810000 M⁻¹ s⁻¹ in [8] and 1.09e+06 M⁻¹ s⁻¹ with mouse ASC [17]. For the same molecule, the normalized binding response with PYD domain of human ASC [18] stood at 1%; in the assay with PYD domain of human ASC [19], 1%; with PYD domain of human ASC [20], 2%; with PYD domain of human ASC [21] it was 2%; in the assay with PYD domain of human ASC [22], 75%; in the assay with PYD domain of human ASC [23] it was 4%. For the same molecule, the normalized binding response is 0% with PYD domain of human ASC [24], 2% with PYD domain of human ASC [25] and 88% with PYD domain of human ASC [26]. In addition, the binding result in the assay with CARD domain of human ASC [28] is listed as “no binding”.

Broadly, the EC50 is the concentration that produces a half-maximal response. One may read the koff as a measure of how fast the partners let go of each other. The low end stands for slow dissociation, the high end for fast dissociation. Broadly, the kon is the rate constant with which the complex forms.

The values above are taken from patent publication US20250320284A1 (AC IMMUNE, published 2025).
